According to patent US20240010735A1 (EISAI R AND D MANAGEMENT, published 2024):

Columns and labels:
Test in all cases: ELISA: SEAP-His proteins (1 nM) captured on anti-6-His antibody, antibody B 10 µg/mL with human IgG 100 µg/mL, HRP anti-human IgG, OD450 as % of human EphA4-SEAP-His
[1] = molecular target: T1, human EphA8 extracellular region-SEAP-His protein (human, UniProt P29322 28-542)
T1 construct: extracellular domain; also called Eph receptor extracellular region-SEAP-His protein; not shown: secretory alkaline phosphatase (SEAP); histidine tag
T1 sequence (looked up): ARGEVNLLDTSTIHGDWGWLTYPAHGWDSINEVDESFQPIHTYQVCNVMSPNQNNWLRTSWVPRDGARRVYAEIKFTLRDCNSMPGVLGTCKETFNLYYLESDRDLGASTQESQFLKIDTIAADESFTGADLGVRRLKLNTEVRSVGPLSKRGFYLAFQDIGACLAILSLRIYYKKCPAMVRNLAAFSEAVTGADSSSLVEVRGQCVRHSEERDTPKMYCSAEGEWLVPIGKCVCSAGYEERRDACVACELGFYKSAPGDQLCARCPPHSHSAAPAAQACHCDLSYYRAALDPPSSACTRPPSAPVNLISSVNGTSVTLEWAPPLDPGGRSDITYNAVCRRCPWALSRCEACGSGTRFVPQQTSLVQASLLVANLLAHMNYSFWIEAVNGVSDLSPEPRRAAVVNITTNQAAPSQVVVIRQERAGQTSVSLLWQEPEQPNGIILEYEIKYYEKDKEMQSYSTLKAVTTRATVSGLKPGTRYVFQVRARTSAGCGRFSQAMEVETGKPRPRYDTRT

[2] = molecular target: T2, human EphA7 extracellular region-SEAP-His protein (human, UniProt Q15375 28-555)
T2 construct: extracellular domain; also called Eph receptor extracellular region-SEAP-His protein; not shown: secretory alkaline phosphatase (SEAP); histidine tag
T2 sequence (looked up): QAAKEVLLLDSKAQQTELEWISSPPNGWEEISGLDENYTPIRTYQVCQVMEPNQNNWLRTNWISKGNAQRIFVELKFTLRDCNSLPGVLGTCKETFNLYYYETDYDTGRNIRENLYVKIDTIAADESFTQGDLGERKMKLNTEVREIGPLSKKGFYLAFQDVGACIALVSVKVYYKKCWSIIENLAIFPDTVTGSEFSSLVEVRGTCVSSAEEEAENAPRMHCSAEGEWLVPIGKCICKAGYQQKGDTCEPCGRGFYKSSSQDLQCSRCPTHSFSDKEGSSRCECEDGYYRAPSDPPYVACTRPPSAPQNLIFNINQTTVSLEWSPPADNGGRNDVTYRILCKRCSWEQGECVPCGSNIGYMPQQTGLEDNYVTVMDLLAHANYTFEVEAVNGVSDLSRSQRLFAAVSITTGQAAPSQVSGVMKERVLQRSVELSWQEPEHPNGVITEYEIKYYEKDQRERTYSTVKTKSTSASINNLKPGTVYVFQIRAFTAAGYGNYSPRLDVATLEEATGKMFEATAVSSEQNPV

[3] = molecular target: T3, human EphB2 extracellular region-SEAP-His protein (human, UniProt P29323 19-543)
T3 construct: extracellular domain; also called Eph receptor extracellular region-SEAP-His protein; not shown: secretory alkaline phosphatase (SEAP); histidine tag
T3 sequence (looked up): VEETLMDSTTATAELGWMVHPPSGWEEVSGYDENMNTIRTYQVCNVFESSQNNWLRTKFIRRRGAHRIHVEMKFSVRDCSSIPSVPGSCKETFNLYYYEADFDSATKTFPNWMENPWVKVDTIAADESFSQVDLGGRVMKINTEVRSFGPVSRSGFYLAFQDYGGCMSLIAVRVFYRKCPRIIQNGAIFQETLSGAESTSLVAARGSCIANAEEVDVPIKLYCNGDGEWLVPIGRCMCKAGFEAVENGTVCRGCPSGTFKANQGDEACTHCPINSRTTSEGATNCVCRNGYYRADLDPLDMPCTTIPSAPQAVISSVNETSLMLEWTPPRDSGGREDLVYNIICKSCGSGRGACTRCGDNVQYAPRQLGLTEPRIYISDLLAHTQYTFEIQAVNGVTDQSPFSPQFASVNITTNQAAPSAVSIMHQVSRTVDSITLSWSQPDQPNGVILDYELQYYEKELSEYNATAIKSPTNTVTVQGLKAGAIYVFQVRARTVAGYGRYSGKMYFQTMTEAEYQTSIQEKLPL

[4] = molecular target: T4, human EphB1 extracellular region-SEAP-His protein (human, UniProt P54762 18-540)
T4 construct: extracellular domain; also called Eph receptor extracellular region-SEAP-His protein; not shown: secretory alkaline phosphatase (SEAP); histidine tag
T4 sequence (looked up): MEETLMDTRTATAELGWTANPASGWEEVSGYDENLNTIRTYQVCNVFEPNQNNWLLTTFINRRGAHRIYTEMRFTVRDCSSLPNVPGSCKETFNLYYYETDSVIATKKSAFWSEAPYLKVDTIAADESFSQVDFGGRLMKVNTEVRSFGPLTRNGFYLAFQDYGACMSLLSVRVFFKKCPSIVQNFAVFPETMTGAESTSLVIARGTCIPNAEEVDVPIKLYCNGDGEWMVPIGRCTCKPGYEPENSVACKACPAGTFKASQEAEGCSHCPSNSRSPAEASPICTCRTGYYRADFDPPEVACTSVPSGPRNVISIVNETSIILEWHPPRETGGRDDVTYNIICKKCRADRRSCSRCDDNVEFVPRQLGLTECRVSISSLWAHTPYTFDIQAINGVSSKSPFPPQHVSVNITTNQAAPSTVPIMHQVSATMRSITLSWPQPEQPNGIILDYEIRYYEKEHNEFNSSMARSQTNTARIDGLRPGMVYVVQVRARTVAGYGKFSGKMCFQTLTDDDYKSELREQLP

Measured: binding result

B1: humanized anti-EphA4 monoclonal antibody (antibody B) (antibody, human IgG2, V domains shown)
VH: QVQLVESGGGVVQPGRSLRLSCAVSGFSLTRFGVHWVRQAPGKGLEWVAVIWRGGSTDYNAAFMSRLTISKDNSKNTVYLQMNSLRAEDTAVYYCAKESLFGVYYDYGYYSMDYWGQGTTVTVSS
VL: DIQMTQSPSSLSASVGDRVTITCRASQEISGYLSWLQQKPGKAPKRLIYAASTLDSGVPSRFSGSRSGTEYTLTISSLQPEDFATYYCLQYASYPLTFGGGTKVEIKR
notes: expressed in Expi293F cells; also called humanized antibody of antibody A; HK2-42 / L1-8
no binding (tested: 10 µg/mL): all assays above
